In one data set the target is dCas9 D10A;H840A (UniProt Q99ZW2). Nature of the data set: single-molecule TIRF. As to conditions: 3'-biotin on strand 2, SPR: 25 mM Tris-HCl pH 7.6, 50 mM NaCl, 5 mM MgCl2, 0.25 mM DTT, 0.2 mM EDTA, 0.005% P20, 20 C, single-molecule: 25 mM Tris-HCl pH 7.9, 10 mM Mg acetate.
For data set [1], the target named is DnaB helicase (Escherichia coli) (UniProt P0ACB0).
For data set [2] the target is unchanged. This is another data set of the same source.
The next data set deals with DnaB (Escherichia coli) (UniProt P0ACB0). Nature of the data set: SPR. As to conditions: cited from earlier work.
DnaB (Escherichia coli), sequence (P0ACB0 2-471): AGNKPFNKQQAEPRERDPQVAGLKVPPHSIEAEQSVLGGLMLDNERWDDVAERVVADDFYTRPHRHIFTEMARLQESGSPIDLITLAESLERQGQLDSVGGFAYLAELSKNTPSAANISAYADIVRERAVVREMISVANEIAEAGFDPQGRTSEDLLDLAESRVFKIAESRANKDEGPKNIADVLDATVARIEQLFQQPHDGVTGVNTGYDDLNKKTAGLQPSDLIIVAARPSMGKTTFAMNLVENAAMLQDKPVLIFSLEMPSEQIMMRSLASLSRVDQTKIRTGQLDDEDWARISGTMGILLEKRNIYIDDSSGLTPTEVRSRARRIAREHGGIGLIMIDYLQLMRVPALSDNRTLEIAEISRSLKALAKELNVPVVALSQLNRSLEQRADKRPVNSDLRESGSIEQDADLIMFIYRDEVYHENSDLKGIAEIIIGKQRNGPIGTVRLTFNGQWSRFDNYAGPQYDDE

DnaB helicase (Escherichia coli), sequence (P0ACB0 whole entry): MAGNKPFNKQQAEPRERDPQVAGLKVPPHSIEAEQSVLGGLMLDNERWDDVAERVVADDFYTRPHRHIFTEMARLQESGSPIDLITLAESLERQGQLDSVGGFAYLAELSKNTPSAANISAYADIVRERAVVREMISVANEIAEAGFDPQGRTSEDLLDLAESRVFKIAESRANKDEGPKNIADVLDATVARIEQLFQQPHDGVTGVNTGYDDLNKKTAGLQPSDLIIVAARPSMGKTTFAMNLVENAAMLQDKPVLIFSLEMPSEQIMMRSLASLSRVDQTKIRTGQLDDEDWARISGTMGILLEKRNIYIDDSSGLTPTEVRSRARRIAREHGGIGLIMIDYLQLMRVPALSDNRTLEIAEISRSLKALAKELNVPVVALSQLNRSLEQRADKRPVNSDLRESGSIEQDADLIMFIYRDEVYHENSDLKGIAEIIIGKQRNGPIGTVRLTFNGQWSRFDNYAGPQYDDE
His6-Rep WT, sequence (P09980 whole entry): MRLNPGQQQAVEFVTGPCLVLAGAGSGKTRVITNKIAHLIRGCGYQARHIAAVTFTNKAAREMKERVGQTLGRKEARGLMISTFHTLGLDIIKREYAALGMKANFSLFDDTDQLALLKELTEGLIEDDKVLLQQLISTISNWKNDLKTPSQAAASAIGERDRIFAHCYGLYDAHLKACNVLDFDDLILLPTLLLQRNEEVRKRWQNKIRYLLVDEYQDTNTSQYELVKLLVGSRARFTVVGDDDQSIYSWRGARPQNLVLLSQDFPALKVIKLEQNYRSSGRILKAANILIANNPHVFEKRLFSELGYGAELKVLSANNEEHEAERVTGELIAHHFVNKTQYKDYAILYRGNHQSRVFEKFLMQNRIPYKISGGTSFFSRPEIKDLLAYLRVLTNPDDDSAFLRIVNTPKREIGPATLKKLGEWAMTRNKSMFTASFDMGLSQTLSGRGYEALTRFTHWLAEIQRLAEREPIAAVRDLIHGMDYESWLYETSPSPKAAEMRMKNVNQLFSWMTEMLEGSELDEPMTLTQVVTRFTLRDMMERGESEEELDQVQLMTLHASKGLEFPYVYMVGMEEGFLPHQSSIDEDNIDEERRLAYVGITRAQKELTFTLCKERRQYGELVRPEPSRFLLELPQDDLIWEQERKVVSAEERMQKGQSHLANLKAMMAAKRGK
His6-Rep ΔC33, sequence (P09980 1-640, stated change not applied): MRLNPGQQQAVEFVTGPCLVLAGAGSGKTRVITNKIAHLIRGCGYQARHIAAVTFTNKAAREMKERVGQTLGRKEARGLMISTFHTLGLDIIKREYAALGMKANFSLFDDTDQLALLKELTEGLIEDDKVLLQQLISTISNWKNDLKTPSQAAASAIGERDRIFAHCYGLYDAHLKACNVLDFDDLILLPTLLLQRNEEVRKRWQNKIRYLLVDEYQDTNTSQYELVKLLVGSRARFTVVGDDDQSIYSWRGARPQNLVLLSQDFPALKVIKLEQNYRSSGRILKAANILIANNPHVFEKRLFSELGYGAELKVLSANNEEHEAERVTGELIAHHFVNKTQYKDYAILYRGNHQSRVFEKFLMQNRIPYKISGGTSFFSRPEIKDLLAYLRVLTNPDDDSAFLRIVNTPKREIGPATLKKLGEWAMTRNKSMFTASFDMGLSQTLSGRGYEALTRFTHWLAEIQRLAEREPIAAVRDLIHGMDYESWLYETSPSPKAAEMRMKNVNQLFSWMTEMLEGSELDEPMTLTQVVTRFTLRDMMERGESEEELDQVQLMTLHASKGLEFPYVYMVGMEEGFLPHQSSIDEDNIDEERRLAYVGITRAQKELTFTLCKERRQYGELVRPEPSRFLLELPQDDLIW
Rep, sequence (P09980 whole entry): as the sequence (P09980 whole entry) above

The substance “CACATGCTATGAGCTGTTGCAATCTCTCGTACAATTAATAGACTGGATGGTGGATGACAAAGCTCTACACTAGATACTCACAC (double strand) [gRNA20 / 83-mer target]” registered a binding signal (min (mean binding lifetime)) with dCas9 D10A;H840A of 1.

Take “CACATGCTATGAGCTGTTGCAATCTCTCGTACAATTAATAGACTGGATGGTGGATGACAAAGCTCTACACTAGATACTCACAC (double strand) [gRNA40 / 83-mer target]”: the binding signal (min (mean binding lifetime)) with dCas9 D10A;H840A is 1.

The substance “CACATGCTATGAGCTGTTGCAATCTCTCGTACAATTAATAGACTGGATGGTGGATGACAAAGCTCTACACTAGATACTCACAC (double strand) [gRNA60 / 83-mer target]” returned a binding signal (min (mean binding lifetime)) in the data set with dCas9 D10A;H840A of 8.3.

In turn, “CACATGCTATGAGCTGTTGCAATCTCTCGTACAATTAATAGACTGGATGGTGGATGACAAAGCTCTACACTAGATACTCACAC (double strand) [gRNA80 / 83-mer target]” came in with a binding signal (min (mean binding lifetime)) in the data set with dCas9 D10A;H840A of 8.6.

Substance “His6-Rep WT (from UniProt P09980 1-673) (enzyme)” showed a replication efficiency in the single-molecule stalled rolling-circle replication assay (dCas9-cgRNA1-Atto647 roadblock), 20 nM Rep WT in data set [1] of 2%. The substance also showed a mean total DNA product length after 3 min in the single-molecule stalled rolling-circle replication assay (template pre-incubated with the dCas9-cgRNA1-Atto647 roadblock), 20 nM Rep WT in data set [2] of 65 kbp.

“His6-Rep ΔC33 (from UniProt P09980 1-640) (domain or fragment)”: the mean total DNA product length after 3 min in the single-molecule stalled rolling-circle replication assay (template pre-incubated with the dCas9-cgRNA1-Atto647 roadblock), 20 nM Rep ΔC33 in data set [2] was determined as 2 kbp.

As usually defined, the Kd is the equilibrium constant for the complex coming apart. Turning to Rep (from UniProt P09980), in the data set with DnaB (Escherichia coli), the Kd was 90 nM.

Source of the values: article PMC10123100, “Single-molecule visualization of stalled replication-fork rescue by the Escherichia coli Rep helicase” (Nucleic Acids Research, 2023).
